In this data set the target is Motif_38 protein HW450_07255 (UniProt A0A7G5FC37 1-70). Briefly: EMSA; EMSA: 20 mM Tris-HCl pH 7.5, 250 mM NaCl, 5% glycerol; 2 uL of 1 uM FAM-DNA (labeled:unlabeled strand 1:4) + 2 uL of ~10 uM protein in 20 uL; 37 C, 30 min. The following applies: protein: recombinant; tags: His (pET-28a, Ni column); label: 5'FAM on strand 1; blunt. (In general: In EMSA bound probe runs differently from free probe, usually more slowly.)

B1: Mot38-WT (dsDNA)
DNA 1: AATAAATCGGCACAATCGTGCCGATTTTGG
DNA 2: CCAAAATCGGCACGATTGTGCCGATTTATT
With B1, the binding result is “binds”.

Values taken from publication PMC12565409, “Computational–Experimental Identification of Palindromic Motifs Bound by Bacterial XRE Family Transcriptional Regulators”.
